One block for each molecule: values may come before it.
Columns and labels:
[1] = molecular target: recombinant mouse CD34 (Sino Biological) (mouse) (UniProt Q64314); assay: ELISA on coated recombinant mouse CD34, LNPs pre-incubated with Triton X-100, anti-Rat HRP detection
[2] = molecular target: recombinant mouse CD34 (Sino Biological) (mouse) (UniProt Q64314); assay: ELISA on coated recombinant mouse CD34
[3] = molecular target: Rat IgG2a (RIg) immobilized on the Biacore chip (Rattus norvegicus (Rat)) (UniProt P20760); assay: SPR, Biacore T-200, RIg immobilized on CM5 chip, mASSET 0 to 30 nM
Chain of UniProt P20760 (P20760 whole entry): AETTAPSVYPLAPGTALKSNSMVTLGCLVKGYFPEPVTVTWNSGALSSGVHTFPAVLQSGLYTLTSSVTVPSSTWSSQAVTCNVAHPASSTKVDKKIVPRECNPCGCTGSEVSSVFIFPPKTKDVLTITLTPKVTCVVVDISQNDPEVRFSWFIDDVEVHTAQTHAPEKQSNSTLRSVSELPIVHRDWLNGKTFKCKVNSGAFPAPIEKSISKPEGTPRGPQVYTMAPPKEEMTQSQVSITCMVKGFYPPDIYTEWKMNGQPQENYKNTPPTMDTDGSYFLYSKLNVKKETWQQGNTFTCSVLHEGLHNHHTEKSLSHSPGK

[4] = molecular target: Rat IgG2a (RIg), BioXcell clone FIB504; assay: ELISA, plates coated with 5 µg/ml RIg, ASSET in serial dilutions, anti-His detection
[5] = molecular target: anti-CD34 RIg (clone mec14.7) held by ASSET on TsiLNPs; assay: share of added RIg held on ASSET LNPs, gel quantification after purification
[6] = molecular target: Rat IgG2a (RIg), BioXcell clone FIB504; assay: ELISA on coated RIg of ASSET LNPs after dialysis, LNPs pre-incubated with 0.2% Triton X-100

Chain of UniProt Q64314 (Q64314 35-287 limits assumed): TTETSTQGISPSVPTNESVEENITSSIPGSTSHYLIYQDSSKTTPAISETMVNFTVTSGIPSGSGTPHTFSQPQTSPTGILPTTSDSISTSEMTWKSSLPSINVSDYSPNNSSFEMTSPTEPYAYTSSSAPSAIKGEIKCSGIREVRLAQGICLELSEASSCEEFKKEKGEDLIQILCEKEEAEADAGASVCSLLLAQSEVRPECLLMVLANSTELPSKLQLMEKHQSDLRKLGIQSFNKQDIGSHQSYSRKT

Molecule: anti-CD34 RIg (clone mec14.7) chemically conjugated to LNPs (ccTsiLNPs) (antibody)
- Kd [1]: 1.08 nM
- fold loss in activity against RIg bound to the LNP by ASSET [2]: 4.5 fold

B2: ASSET (Anchored Secondary scFv Enabling Targeting) (scFv, part only; not given: mCherry fusion and junctions, part only)
scFv, part: CDQSSSEVQLLQSGPELVKPGASVKIPCKASGYTFTDYNMDWVKQSHEKSLEWIGYINPYSGDTIYNHKFKDKATLTVYKSSNIAYMELRSLTSEDTAVYYCARGGYDYGDHWGQGTTLTVSSGSAGGGGSGGGGSGGGGSDIKMTQSPSSMYASLGERVTITCKASQDINSYLSWFQQKPGKSPKTLIYRANRLVDGVPSRFSGSGSGQDYSLTISSLEYEDMGIYYCLQDDEFPRTFGGGTKLEIKHHHHHH
modifications: N-terminal cysteine of the CDQSSS NlpA motif is lipid-acylated (bacterial lipidation)
- Kd [4]: 10 nM
- IgG incorporation [5]: 98.3%
- functionality maintained after incorporation into LNPs [6]: 95.8%

The next lines start with the values.

- Kd [1]: 0.24 nM
Molecule: anti-CD34 RIg (clone mec14.7) held by ASSET on TsiLNPs (antibody)

- Kd [3]: 22.7 nM
B1: mutated (m)ASSET, fusion protein containing a mutated NlpA motif (scFv, not shown: small tags and cut ends)
scFv: EVQLLQSGPELVKPGASVKIPCKASGYTFTDYNMDWVKQSHEKSLEWIGYINPYSGDTIYNHKFKDKATLTVYKSSNIAYMELRSLTSEDTAVYYCARGGYDYGDHWGQGTTLTVSSGSAGGGGSGGGGSGGGGSDIKMTQSPSSMYASLGERVTITCKASQDINSYLSWFQQKPGKSPKTLIYRANRLVDGVPSRFSGSGSGQDYSLTISSLEYEDMGIYYCLQDDEFPRTFGGGTKLEIK

— patent US20190309087A1
